Data reported in patent US10323078B2, “Isolated peptides and fragments thereof from fibrinogen for use as drugs, particularly in skin inflammatory diseases” (Universite Paris Descartes, priority 2015, dated 2019).
Ends that are not written are not given here.

Tests used:
NHEK cells [1] = experiment: In vitro model of psoriasis: IL-8 release by keratinocytes stimulated by IL-17, OSM and TNF-α; type: cell-based, human; settings: NHEK stimulated by IL-17, OSM and TNF-α (3 ng/ml each); 10 μM; 48 h
Protocol: (§1) FIG. 30: Inhibition of Il-8 production by keratinocytes stimulated by Il-17, OSM and TNF-α. NHEK cells were stimulated by a combination of Il-17, OSM and TNF-α (3 ng/ml each) and treated with JAK inhibitor at 10 μM (positive control) or Fg1.1.1 at concentrations ranging from 1.52 to 12.2 μM for 48 h. Measurement of IL-8 production was realized by ELISA and cytotoxicity was determined by the MTT assay as described in Materials and Methods Control experiments were done with untreated and unstimulated NHEK cells (cell alone) and with untreated NHEK stimulated by the combination of Il-17, OSM and TNF-α. Data are means±S.D. of three individual experiments. Statistical significance is indicated by * (P<0.05), ** (P<0.01), and *** (P<0.001), respectively.
(§2) For experiences using an in vitro model of psoriasis, cutaneous primary human keratinocytes (NHDK) were grown in culture medium for 24 hours. […]
(§3) Human IL-1ß, IL-8, IL-12, hBD-2, and TNF-α protein concentration was measured in the supernatants of stimulated cells using various ELISA Set kits (Ready-Set-Go kit from eBioscience for acne experiments, and for psoriasis experiments the Duo set IL-8 kit from R&D Systems and the BD-2 Human Development (hBD-2) from Peprotech) according to the manufacturer's instructions. […] The optical density was determined at 450 nm at a wavelength correction of 540 nm. […]

NHEK cells [2] = experiment: In vitro model of psoriasis: hBD-2 release by keratinocytes stimulated by IL-17, OSM and TNF-α; type: cell-based, human; settings: NHEK stimulated by IL-17, OSM and TNF-α (5 ng/ml each); 10 μM; 72 h
Protocol: as §1, with “31:” for “30:”, “hBD-2” for “Il-8”, “(5” for “(3”, “72” for “48”, “hBD-2” for “IL-8”
as §2, §3

NHEK cells [3] = experiment: In vitro model of psoriasis: cytotoxicity by MTT assay; type: cell-based, human; settings: all concentrations tested (1.52 to 12.2 μM)
Protocol: as §1, with “Statistical significance is indicated by * (P<0.05), ** (P<0.01), and *** (P<0.001), respectively.” left out
FIG. 31: Inhibition of hBD-2 production by keratinocytes stimulated by Il-17, OSM and TNF-α. […] Measurement of hBD-2 production was realized by ELISA and cytotoxicity was determined by the MTT assay as described in Materials and Methods Control experiments were done with untreated and unstimulated NHEK cells (cell alone) and with untreated NHEK stimulated by the combination of Il-17, OSM and TNF-α. […]
Crystal violet staining was used to determine the number of adherent cells in 96-well plates. […] After washing with PBS, 100% methanol was added, and the absorbance was measured spectrophotometrically at 540 nm on an ELISA multiwell reader. […] After thorough mixing, the absorbance was measured at 540 nm.

P. acnes RON strain = experiment: Adhesion assay, biotinylated P. acnes binding to monocytes (ThP1); type: cell-based, Propionibacterium acnes; settings: monocytes (THP-1); bacteria pretreated 0.87 to 7 μM, 1 h at 37° C.
Protocol: FIG. 13: Dose-dependent inhibition of P. acnes RON binding to monocytes cell line. Biotinylated P. acnes RON strain at concentrations adjusted to 0.1 of absorbance at 600 nm was pre-treated with the recombinant peptides Fg1 and Fg2 and incubated 1 h at 37° C. with the human immortalized monocytes cell line ThP1. After removal of unbound bacteria, adhesion activity was detected at 410 nm. Data are means±S.D. of three separate experiments. Statistical significance is indicated by * (P<0.05), ** (P<0.01), *** (P<0.001), and **** (P<0.0001), respectively.
The bacterial suspension was adjusted at 600 nm to the desired concentration, pretreated with peptides Fg1 and Fg2 at the final concentration ranging from 0.87 to 7 μM for 1 h at 37° C. and deposited on the previously saturated cells with a solution of PBS SVF 2% for 2 h. After incubation for 1 h at 37° C., unbound bacteria are removed by 3 washes with PBS and fixed bacteria are detected by a streptavidin-peroxidase solution of 0.5 μg/ml for 30 min.
Whole P. acnes bacteria are labelled by biotinylation, pre-treated or not with the peptides and contacted with the various cell lines. After removal of the unfixed bacteria, the adhesion activity was measured spectrophotometrically by using the streptavidin-peroxidase conjugate and a chromogenic substrate. […]

[4] = system: Pfg binding to fibrinogen; experiment: Inhibition of biotinylated Pfg binding to coated fibrinogen; set-up: species or system Propionibacterium acnes; settings: biotinylated Pfg pretreated with increasing amount of recombinant peptide 1 h at 37° C.; fibrinogen coated 25 μg per well
Protocol: FIG. 9: Dose-dependent inhibition of biotinylated Pfg binding to fibrinogen by fibrinogen-derived peptide. Biotinylated PFg (0.4 mg) was pretreated with increasing amount of recombinant peptides Fg1 (♦), Fg2 (▪) or BSA as control (●) for 1 h at 37° C., and the binding activity to coated fibrinogen on polystyrene plate (25 μg per well) was evaluated. Results are expressed as mean±SD. Each point was done in quadruplet.
Since it has been shown that only Fg1 was able to recognize Pfg, biotinylated Pfg was pre-treated with various concentrations of purified Fg1 and tested its ability to recognize immobilized fibrinogen. Fg2 and BSA were used as neative controls (FIG. 9).

[5] = system: HaCaT, NHDK, ThP1, MRC5 and HDF cell lines; experiment: Cell viability (MTT) after treatment with Fg1 and Fg2 recombinant peptides; type: cell-based, human; settings: all 5 cell lines; 0.22 to 7 mM for 18 h at 37° C.
Protocol: FIG. 10: Evaluation of cell viability after treatment with the Fg1 and Fg2 recombinant peptides. Human immortalized and primary keratinocyte cell lines HaCaT and NHDK; immortalized monocytes cell line ThP1, and immortalized and primary fibroblast cell lines MRCS and HDF were incubated with Fg1 and Fg2 recombinant peptides with concentrations ranging from 0.22 to 7 mM for 18 h at 37° C. Cell viability was assessed using the MTT assay as described in Materials and Methods.
Crystal violet staining was used to determine the number of adherent cells in 96-well plates. Briefly, after incubation with the test compound, the culture medium was discarded and the cells were incubated with a 0.05% crystal violet solution (Sigma) for 30 min at room temperature. After washing with PBS, 100% methanol was added, and the absorbance was measured spectrophotometrically at 540 nm on an ELISA multiwell reader. The MTT ([…]) assay was performed to test cell viability in 96-well plates. […] After thorough mixing, the absorbance was measured at 540 nm.
Whole P. acnes bacteria are labelled by biotinylation, pre-treated or not with the peptides and contacted with the various cell lines. After removal of the unfixed bacteria, the adhesion activity was measured spectrophotometrically by using the streptavidin-peroxidase conjugate and a chromogenic substrate.

Pfg = experiment: Western ligand blot with biotinylated Pfg; type: binding, Propionibacterium acnes; settings: E. coli total protein after IPTG induction, 12.5% SDS-PAGE; biotinylated Pfg 0.1 μg/ml
Protocol: FIG. 5: Binding of P. acnes surface proteins to fibrinogen. (A) Various quantities of human fibrinogen (hFg) and bovine fibrinogen (bFg) were immobilized onto a 96-well polystyrene plate at 4° C. for 18 h and incubated with biotinylated Pfg at 0.1 μg/ml for 2 h at 23° C. Bovine serum albumin (BSA) was used as negative control. Bound material was detected by using the HRP-streptavidin conjugate. Peroxidase activity was measured by using the ABTS substrate at 405 nm. Proteins (10 μg per lane) were separated by 10% SDS-PAGE and detected by (B) Commassie blue staining, and transferred to nitrocellulose membrane and incubated with (C) HRP-streptavidine alone, and (D) biotinylated Pfg (0.1 μg/ml). Lanes 1: molecular weight standards. Lane 2: BSA. Lane 3: hFg. Lane 4: bFg.
FIG. 8: Cloning of Bß human fibrinogen fragments and binding with Pfg. (A) Cloning and expression of recombinant human Bß fibrinogen fragments Fg1, Fg2, Fg3 and Fg4. Fibrinogen fragments were obtained by RT-PCR and expression plasmids were constructed as described in Materials and Methods. (B) GST-fused proteins were expressed in E. coli, fractionated by 12.5% SDS-PAGE, and detected by Coomassie blue staining (B), and incubated with biotinylated Pfg (0.1 μg/ml) as described in Materials and Methods (C).
To characterize the interaction between P. acnes and ligands, we used biotinylated molecules in quantitative and qualitative assays. In a first set of assays, ECM ligands (fibrinogen, collagens I, IV, VI and VIII) were used as labelled proteins with biotin. In a second set of assays, P. acnes surface proteins (total extract and purified Pfg) were biotinylated. For quantitative analysis, unlabeled protein were diluted into 50 mM carbonate-bicarbonate, pH 9.6 buffer to yield a protein concentration ranging from 0.01 to 50 μg/ml, and then immobilized to 96-well polystyrene plates at 4° C. overnight. The wells were rinsed three times with 0.2 ml of PBS containing 0.05% Tween-20 (PBS-Tween). Biotinylated proteins (0.01 to 16 μg/ml in PBS-Tween) were added to the wells and incubated at room temperature for 1 h. The wells were rinsed three times with 0.2 ml of PBS-Tween. Peroxidase conjugated to streptavidin (0.5 μg/ml in PBS-Tween) was added and incubated for 30 min at room temperature. After washing, bound peroxidase was detected using the chromogenic peroxidase substrate ABTS. For qualitative analysis, unlabelled protein (10-75 μg per lane) were separated by SDS-PAGE and then transferred to nitrocellulose membranes (0.45 μm pore size), as described previously (Towbin, 1979). Membranes were then saturated overnight at 4° C. in PBS containing 5% BSA, 0.05% Tween-20 (PBT buffer). Binding activity was detected by incubating the membranes with 20 ml of PBT containing biotinylated proteins (0.1 μg/ml) for 2 h at room temperature followed by three washes with PBT. Bound biotinylated proteins were detected by incubating the membrane with peroxidase conjugated to streptavidin (0.5 μg/ml in PBT) for 1 h at room temperature. After washing, bound peroxidase activity was detected using 3,3′-diaminobenzidine in the presence of CoCl2 and H2O2 (Harlow and Lane, 1988).
Since it was shown that Pfg is recognized by fibrinogen, this ECM ligand was used to analyze the nature of this interaction. First it was analyzed the ability of fibrinogen to be recognized by purified Pfg (FIG. 5). Human and bovine Fg (hFg, bFg) were immobilized to polysterene plate and the binding activity of biotinylated Pfg was measured. […] It has been shown that fibrinogen is a glycoprotein containing both N- and O-linked glycans (Debeire 1985; Reid Townsend 1982; L'Hôte 1996). […] In parallel, deglycosylation was assessed by visualization of a shift in the mobility after electrophoresis separation and Coomassie blue staining (FIG. 6A, lanes 3 and 5) and also by using the RCA-I plant lectin able to recognize ß-linked galactosyl residues in terminal position (FIG. 6C) (Green, 1987). […]

Molecule: Jak Inhibitor I
- Inhibition of IL-8 release (NHEK cells [1]): 67%
- Inhibition of hBD-2 release (NHEK cells [2]): 80%

Molecule: LLLCVFLVKSQGVND [Fg1.1.1, LLLCVFLVKSQGVND]
- Effect on cell viability (MTT) (NHEK cells [3]): no effect on cell viability

B1: DAGGCLHADPDLGVLCPTGCQLQEALLQQERPIRNSVDELNNNVEAVSQTSSSSFQYMYLLKDLWQKRQKQVKDNENVVNEYSSELEKHQLYIDETVNSNIPTNLRVLRSILENLRSKIQKLESDVSAQMEYCRTPCTVSCNIPVVS (protein)
chain: DAGGCLHADPDLGVLCPTGCQLQEALLQQERPIRNSVDELNNNVEAVSQTSSSSFQYMYLLKDLWQKRQKQVKDNENVVNEYSSELEKHQLYIDETVNSNIPTNLRVLRSILENLRSKIQKLESDVSAQMEYCRTPCTVSCNIPVVS
modifications: fragment Fg2
notes: recombinant fragment of Bß sub-unit of human fibrinogen, used as negative control
- Inhibition of adhesion of P. acnes RON strain (P. acnes RON strain): no anti-adhesive activity
- Inhibition of the recognition between Pfg and human fibrinogen [4]: did not
- Cytotoxic activity (cell viability, MTT) [5]: no cytotoxic activity
- Recognition of GST-fused recombinant Bß fibrinogen fragments by biotinylated Pfg (Pfg): only Fg1 was recognized
